Results on two molecules are retold here after patent US20220403048A1 (CANCER RESEARCH TECHNOLOGY, published 2022).

Assay [1] has as its target T1, biotinylated recombinant human trimeric ARG2 enzyme (Avi-huARG2-His10) (human, UniProt P78540 23-354, biotinylated).
T1 construct: also called avi-Arg2-His10; bio-ARG2
T1 chain: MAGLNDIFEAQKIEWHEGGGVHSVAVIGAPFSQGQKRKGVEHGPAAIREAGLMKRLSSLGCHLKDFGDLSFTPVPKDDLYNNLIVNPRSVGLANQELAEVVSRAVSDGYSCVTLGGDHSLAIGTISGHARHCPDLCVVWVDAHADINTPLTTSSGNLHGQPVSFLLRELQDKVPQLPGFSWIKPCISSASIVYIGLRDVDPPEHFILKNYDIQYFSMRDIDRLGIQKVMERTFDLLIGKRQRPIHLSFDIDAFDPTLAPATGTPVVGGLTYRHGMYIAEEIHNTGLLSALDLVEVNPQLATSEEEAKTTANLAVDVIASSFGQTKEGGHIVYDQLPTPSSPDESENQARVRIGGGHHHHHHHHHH
The experiment in a line: HTRF epitope competition, scFv titrated, competitor C0020187 IgG, on biotinylated human trimeric ARG2. Background: TR-FRET usually uses a lanthanide donor and a delayed reading to cut background.

Assay [2] concerns the target T1, biotinylated recombinant human trimeric …. Description: HTRF direct binding assay, biotinylated recombinant human trimeric ARG2, streptavidin cryptate and anti-c-myc-XL665, % Delta F. As to the method:
In this assay, binding of unpurified scFv to recombinant human trimeric ARG2 enzyme was assessed by measuring the fluorescence resonance energy transfer (FRET) between the c-myc tagged scFv and the biotinylated enzyme using streptavidin cryptate and anti-c-myc-XL665 detection reagents (CisBio International, France; cat: 610SAKLB and 61 MYCXLB respectively). Selection outputs were screened as unpurified bacterial periplasmic extracts containing scFv, prepared in 200 mM tris buffer pH 7.4, 0.5 mM EDTA and 0.5 M sucrose. 5 μl of unpurified scFv samples were added to a Greiner® 384 well assay plate (Greiner Bio-one, UK; cat: 784076). This was followed by the addition of 5 μl of 12 nM recombinant human trimeric ARG2 enzyme, 5 μl of 6.67 nM streptavidin cryptate and 5 μl 40 nM anti-c-myc-XL665. […] Assay plates were incubated overnight at 4° C. prior to reading time resolved fluorescence on a Pherastar plate reader ([…]) using an excitation wavelength of 320 nm and measuring the emission at 620 nm and 665 nm (100 flashes).
The ARG2 binding profile of each purified scFv was determined by testing a dilution series of the purified scFv in the HTRF™ assay described in section 1.4, substituting the unpurified scFv periplasmic preparation with the purified scFv. […]

Assay [3] deals with T2, biotinylated recombinant human trimeric ARG1 enzyme (Avi-huARG1-His10) (human, UniProt P05089 1-322, biotinylated in HTRF and streptavidin BLI assays).
T2 construct: also called Human ARG1; recombinant ARG1
T2 sequence: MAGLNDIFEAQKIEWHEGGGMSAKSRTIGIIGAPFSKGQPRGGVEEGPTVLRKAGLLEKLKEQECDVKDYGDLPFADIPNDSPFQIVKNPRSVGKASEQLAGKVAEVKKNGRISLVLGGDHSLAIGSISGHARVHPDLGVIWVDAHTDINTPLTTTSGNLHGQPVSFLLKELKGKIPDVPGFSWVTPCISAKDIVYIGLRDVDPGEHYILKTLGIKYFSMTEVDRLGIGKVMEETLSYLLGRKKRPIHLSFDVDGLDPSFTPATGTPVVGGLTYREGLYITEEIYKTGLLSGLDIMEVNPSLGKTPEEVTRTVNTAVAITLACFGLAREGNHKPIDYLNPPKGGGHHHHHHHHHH
The experiment in a line: HTRF direct binding assay, biotinylated recombinant human trimeric ARG1.

Assay [4] has as its target T3, recombinant human trimeric ARG2 enzyme (construct not given) (human, UniProt P78540 23-354).
T3 sequence (looked up): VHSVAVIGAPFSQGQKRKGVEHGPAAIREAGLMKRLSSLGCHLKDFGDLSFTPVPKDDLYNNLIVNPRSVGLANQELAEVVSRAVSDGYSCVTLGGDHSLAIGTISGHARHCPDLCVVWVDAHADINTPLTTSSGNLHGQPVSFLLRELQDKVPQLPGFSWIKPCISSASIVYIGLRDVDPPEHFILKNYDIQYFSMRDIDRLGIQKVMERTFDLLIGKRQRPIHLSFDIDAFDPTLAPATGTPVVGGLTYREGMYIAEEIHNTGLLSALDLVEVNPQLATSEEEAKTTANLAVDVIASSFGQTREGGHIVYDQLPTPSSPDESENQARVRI
Description: cell-based or functional assay.

Assay [5] addresses T4, biotinylated recombinant cynomolgus monkey trimeric ARG2 enzyme (Avi-cynoARG2-His10) (cynomolgus monkey, UniProt P78540 23-354 (human entry), biotinylated).
T4 construct: also called cynomolgus ARG2
T4 chain: T1 chain with A189P, R231Q, H273E, K325R, D333G
Description: HTRF direct binding assay, biotinylated recombinant cynomolgus trimeric ARG2, streptavidin cryptate and anti-c-myc-XL665, Delta F %.

For assay [6], the target named is T2, biotinylated recombinant human trimeric …. Description: BLI (OctetRED), biotinylated ARG1 on streptavidin tip. As to the method:
(§1) The affinity of binding between the Fab of C0020187 and human ARG2, cynomolgus ARG2 and human ARG1 was estimated using assays in which the biotinylated ARG antigen was captured on a streptavidin sensor tip. A fresh sensor tip was used for each measurement and no regeneration was used. A series of dilutions of the C0020187 Fab (3.25-240 nM) were individually placed in contact with the ligand surface for a sufficient amount of time to observe sensorgrams that could be fitted to an appropriate binding model with confidence (typically 5 minutes), followed by an appropriate length of dissociation time (typically 10 minutes). Blank reference (0 nM Fab) data were subtracted from each dataset to reduce the impact of any buffer artefacts or non-specific binding effects. An appropriate binding model was then fitted simultaneously to the data from each analyte titration using the Octet Evaluation software.

Assay [7] addresses T4, biotinylated recombinant cynomolgus …. Description: BLI (OctetRED), biotinylated ARG on streptavidin tip, Fab as analyte, 1:1 fit. The procedure: (§2) An Octet Kinetics Buffer (PBS containing 0.01% BSA and 0.002% Tween20) is typically used as the diluent buffer for the analyte samples and as the flow buffer during the dissociation phase. The experimental data is recorded over time as shift in interference pattern (nm) over time, which is directly proportional to the optical thickness at the biosensor tip, which in turn is an approximate measure of the mass of analyte bound. The proprietary Octet Data Analysis software package can then be used to process data and fit binding models to the data sets. Returned association (kₐ, M⁻¹ s⁻¹) and dissociation (kd, s⁻¹) rate constants allow calculation of dissociation (KD, M) affinity constants.
as §1
(§3) Example results for C0020187 are shown in Table 9, showing the association rate constants (kₐ), dissociation rate constants (kd) and dissociation constants (KD). These parameters were derived from a 1:1 binding fit to the data.

For assay [8], the target named is T1, biotinylated recombinant human trimeric …. The description is as above. As to the method: as §2, §1, §3

Changes are numbered by the printed parent chain.

B1: C0020187 scFv (scFv, V domains shown)
VH: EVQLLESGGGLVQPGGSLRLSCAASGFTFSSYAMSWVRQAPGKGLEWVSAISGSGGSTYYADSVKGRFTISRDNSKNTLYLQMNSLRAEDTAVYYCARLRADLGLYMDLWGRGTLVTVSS
VL: QSVLTQPPSVSAAPGQKVTISCSGSSSNIGNHYVSWYQQLPGTAPKLLIYDNSERPSGIPDRFSGSKSGTSATLGITGLQTGDEADYYCGTWDSSLSALVFGGGTKLTVL
notes: c-myc tagged scFv; also called parent C0020187 scFv
As a reminder, the IC50 is the concentration at which inhibition is half-maximal. As a reminder, the EC50 (read off the curve) is the midpoint of the concentration-response curve. B1: in assay [1], the IC50 turned out to be 1580 nM. Further, the “EC50 (read off the curve)” value in assay [2] was about 20 nM; in assay [5] it was about 10 nM. In addition, in assay [3], the binding result is “no binding (tested: log M -6 (1e-6 M))”. Also, the “Trimeric human ARG2 EIA IC50” value in assay [4] stood at 964 nM.

B2: C0020187 Fab (Fab, V domains shown)
VH: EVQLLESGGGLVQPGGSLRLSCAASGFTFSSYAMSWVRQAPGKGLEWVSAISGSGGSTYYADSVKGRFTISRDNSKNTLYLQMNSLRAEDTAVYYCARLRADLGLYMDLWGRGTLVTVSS
VL: B1 VL
notes: Human Fab (CH1 and part of the hinge; light chain constant domain); also called Fab of C0020187
A word on the Kd: it is the concentration at which binding is half-saturated. The term koff denotes a measure of how fast the partners let go of each other. As usually defined, the kon is a measure of how fast the partners come together. In the case of B2, in assay [6], the binding result was “no binding (tested: 3.25-240 nM Fab)”. Besides, in assay [7], the Kd amounted to 6.26 nM, the koff was 0.000631 s⁻¹ and the kon is 101000 M⁻¹ s⁻¹. Also, in assay [8], the Kd came to 8.35 nM, the koff worked out at 0.000577 s⁻¹ and the kon was found to be 69200 M⁻¹ s⁻¹.
